Reference: patent US20190000964A1

Columns and labels:
[1] = biological target: human CCR5 receptor (hCCR5) (human) (UniProt P51681); assay: inhibition of gp120/sCD4 complex binding to CCR5-expressing Cf2Th cells by competing peptide
[2] = biological target: human CCR5 receptor (hCCR5) (human) (UniProt P51681)
[3] = biological target: human CCR5 receptor (hCCR5) (human) (UniProt P51681); assay: 0.5 nM non-labeled gp120 Bal against 0.5 nM FITC-gp120Bal on Cf2Th/synCCR5 cells with sCD4

Chain of human CCR5 receptor (hCCR5) (human) (P51681 whole entry): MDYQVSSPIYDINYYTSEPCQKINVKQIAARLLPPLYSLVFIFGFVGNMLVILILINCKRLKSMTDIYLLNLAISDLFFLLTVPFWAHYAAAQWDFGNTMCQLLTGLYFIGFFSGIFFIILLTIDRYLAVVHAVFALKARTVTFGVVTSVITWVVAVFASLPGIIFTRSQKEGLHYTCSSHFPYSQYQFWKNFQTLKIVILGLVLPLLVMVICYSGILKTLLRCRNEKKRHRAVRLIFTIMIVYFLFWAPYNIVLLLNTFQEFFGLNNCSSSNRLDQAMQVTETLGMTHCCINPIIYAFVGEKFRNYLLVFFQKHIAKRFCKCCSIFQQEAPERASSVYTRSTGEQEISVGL

All D, ttnyt (peptide)
EC50 [1]: 2 nM

gp120 Bal-sCD4 complex (from UniProt P01730 26-396)
Kd [2]: 0.46 nM
percent inhibition of FITC-gp120Bal binding [3]: > 80%

gp120 CM235-sCD4 complex (from UniProt P01730 26-396)
Kd [2]: 0.77 nM
